Experimental data taken from patent US20220204643A1 (published 2022).

Key:
[1] = target: T1, transforming growth factor beta induced (human, UniProt Q15582 24-683); assay: protein array
T1 construct: on protein array; also called TGFBI
T1 sequence: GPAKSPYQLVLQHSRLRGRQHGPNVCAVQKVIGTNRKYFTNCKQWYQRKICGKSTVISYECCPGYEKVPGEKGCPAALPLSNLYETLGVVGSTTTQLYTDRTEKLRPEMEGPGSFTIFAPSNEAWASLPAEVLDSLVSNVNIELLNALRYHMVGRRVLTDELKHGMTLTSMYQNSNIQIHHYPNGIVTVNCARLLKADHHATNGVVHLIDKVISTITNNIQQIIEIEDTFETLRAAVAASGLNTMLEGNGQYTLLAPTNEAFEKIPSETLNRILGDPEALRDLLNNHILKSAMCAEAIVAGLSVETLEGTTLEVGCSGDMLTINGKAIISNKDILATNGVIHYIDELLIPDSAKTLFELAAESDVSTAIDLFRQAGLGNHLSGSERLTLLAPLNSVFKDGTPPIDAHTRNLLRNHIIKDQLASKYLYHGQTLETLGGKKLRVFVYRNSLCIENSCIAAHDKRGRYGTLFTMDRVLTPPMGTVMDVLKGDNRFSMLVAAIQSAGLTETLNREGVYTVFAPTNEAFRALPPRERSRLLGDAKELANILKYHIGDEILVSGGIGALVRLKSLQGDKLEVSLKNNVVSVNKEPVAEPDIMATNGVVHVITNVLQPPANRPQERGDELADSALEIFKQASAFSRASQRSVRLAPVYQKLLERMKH

chymotrypsinogen B2 = target: T2, chymotrypsinogen B2 (human, UniProt Q6GPI1 19-263); assay: protein array
T2 construct: on protein array; also called CTRB2
T2 sequence (Q6GPI1 19-263 limits assumed): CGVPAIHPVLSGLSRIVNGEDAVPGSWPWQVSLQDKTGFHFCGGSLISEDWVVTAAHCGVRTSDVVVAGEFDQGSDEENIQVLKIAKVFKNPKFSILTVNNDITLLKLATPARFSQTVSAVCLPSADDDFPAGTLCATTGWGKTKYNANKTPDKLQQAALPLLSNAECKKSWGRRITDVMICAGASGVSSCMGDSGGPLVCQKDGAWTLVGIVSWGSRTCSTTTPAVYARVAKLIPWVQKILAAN

programmed cell death 1 = target: T3, programmed cell death 1 (human, UniProt Q15116 25-288); assay: protein array, with experimental replicate
T3 construct: on protein array; also called PDCD1
T3 sequence (Q15116 25-288 limits assumed): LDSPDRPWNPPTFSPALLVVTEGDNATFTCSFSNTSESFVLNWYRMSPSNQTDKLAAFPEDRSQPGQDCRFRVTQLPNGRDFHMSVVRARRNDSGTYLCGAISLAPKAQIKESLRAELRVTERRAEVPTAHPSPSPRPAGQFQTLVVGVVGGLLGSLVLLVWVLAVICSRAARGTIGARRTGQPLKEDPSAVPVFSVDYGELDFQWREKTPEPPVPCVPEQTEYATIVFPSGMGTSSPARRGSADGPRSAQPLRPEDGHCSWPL

[2] = target: T4, NFKB inhibitor beta, transcript variant 1 (human, UniProt Q15653 1-356); assay: protein array
T4 construct: on protein array; also called NFKBIB
T4 sequence: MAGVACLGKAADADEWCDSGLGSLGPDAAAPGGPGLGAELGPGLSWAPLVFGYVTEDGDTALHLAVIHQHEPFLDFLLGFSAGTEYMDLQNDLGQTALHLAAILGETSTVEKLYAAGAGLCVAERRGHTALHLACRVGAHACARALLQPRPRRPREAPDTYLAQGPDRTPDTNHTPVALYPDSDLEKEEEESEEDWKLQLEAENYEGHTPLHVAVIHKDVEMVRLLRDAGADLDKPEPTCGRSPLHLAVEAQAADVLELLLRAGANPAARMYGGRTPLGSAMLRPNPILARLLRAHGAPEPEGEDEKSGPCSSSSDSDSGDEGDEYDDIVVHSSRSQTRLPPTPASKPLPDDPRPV

[3] = target: T5, cyclin dependent kinase 2 associated protein 2, transcript variant 1 (human, UniProt O75956 1-126); assay: protein array
T5 construct: on protein array; also called CDK2AP2
T5 sequence: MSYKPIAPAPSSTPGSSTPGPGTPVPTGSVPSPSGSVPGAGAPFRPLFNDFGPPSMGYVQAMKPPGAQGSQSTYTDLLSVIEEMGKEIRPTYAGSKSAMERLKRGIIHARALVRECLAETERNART

[4] = target: T6, zinc finger DHHC-type containing 1, transcript variant 1 (human, UniProt Q8WTX9 1-485); assay: protein array
T6 construct: on protein array; also called ZDHHC1
T6 sequence: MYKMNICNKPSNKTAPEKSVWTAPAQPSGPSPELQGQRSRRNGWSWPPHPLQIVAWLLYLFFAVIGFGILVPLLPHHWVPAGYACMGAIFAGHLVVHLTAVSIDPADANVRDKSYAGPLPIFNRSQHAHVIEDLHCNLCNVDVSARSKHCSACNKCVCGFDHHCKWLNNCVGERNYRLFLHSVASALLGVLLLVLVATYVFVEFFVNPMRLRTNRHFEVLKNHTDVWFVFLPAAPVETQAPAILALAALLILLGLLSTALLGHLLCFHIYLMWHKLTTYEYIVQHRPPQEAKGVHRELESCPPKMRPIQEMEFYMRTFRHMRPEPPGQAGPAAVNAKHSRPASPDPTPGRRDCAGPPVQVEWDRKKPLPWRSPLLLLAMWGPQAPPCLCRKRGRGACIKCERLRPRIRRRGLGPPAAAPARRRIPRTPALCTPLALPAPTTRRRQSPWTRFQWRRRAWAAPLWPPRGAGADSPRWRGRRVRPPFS

[5] = target: T7, zinc finger with KRAB and SCAN domains 4, transcript variant X1 (human, UniProt Q969J2 1-545); assay: protein array
T7 construct: on protein array; also called ZKSCAN4
T7 sequence: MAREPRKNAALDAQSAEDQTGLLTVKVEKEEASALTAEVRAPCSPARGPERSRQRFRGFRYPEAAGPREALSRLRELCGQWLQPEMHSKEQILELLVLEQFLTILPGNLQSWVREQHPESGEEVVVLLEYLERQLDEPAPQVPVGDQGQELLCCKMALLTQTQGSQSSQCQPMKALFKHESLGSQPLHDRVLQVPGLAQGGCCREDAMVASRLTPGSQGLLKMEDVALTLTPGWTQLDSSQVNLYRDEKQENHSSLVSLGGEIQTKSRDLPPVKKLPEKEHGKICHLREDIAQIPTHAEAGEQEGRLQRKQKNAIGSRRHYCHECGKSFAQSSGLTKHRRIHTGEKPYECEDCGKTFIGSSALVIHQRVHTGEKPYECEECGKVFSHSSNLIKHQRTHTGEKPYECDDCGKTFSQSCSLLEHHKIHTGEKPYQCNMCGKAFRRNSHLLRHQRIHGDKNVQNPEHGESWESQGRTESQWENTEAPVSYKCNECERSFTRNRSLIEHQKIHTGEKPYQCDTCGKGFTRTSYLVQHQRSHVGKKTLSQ

[6] = target: T8, BCL2 apoptosis regulator, transcript variant alpha (human, UniProt P10415 1-239); assay: protein array
T8 construct: on protein array
T8 sequence (P10415 whole entry, change not shown): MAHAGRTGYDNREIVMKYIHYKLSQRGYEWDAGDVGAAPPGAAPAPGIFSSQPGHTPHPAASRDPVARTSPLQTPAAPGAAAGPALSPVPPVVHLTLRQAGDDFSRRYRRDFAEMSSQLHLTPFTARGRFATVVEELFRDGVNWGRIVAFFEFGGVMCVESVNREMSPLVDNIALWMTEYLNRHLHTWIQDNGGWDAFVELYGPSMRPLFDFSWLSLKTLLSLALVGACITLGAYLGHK

[7] = target: T9, phosphoglucomutase 2 like 1 (human, UniProt Q6PCE3 1-622 at identity 1.00)); assay: protein array
T9 construct: on protein array; also called PGM2L1
T9 sequence: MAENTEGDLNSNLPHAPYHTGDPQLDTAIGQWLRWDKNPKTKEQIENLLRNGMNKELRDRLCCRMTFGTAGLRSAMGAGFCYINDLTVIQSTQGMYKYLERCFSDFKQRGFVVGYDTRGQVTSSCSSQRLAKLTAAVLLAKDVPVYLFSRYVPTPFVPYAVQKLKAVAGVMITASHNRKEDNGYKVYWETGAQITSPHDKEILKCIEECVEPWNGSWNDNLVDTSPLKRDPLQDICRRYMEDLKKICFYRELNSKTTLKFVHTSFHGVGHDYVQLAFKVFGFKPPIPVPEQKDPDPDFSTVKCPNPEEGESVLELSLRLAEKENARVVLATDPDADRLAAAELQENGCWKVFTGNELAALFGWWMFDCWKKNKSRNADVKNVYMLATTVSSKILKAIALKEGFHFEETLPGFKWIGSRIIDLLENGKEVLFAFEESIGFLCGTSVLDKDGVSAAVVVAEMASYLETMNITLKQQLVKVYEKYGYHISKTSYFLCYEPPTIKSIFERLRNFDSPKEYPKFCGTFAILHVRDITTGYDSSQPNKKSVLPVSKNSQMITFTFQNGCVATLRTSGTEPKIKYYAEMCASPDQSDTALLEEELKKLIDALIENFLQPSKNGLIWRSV

[8] = target: T10, Transforming growth factor beta 3 (human, UniProt P10600 24-412); assay: protein array
T10 construct: on protein array; also called TGFB3
T10 sequence: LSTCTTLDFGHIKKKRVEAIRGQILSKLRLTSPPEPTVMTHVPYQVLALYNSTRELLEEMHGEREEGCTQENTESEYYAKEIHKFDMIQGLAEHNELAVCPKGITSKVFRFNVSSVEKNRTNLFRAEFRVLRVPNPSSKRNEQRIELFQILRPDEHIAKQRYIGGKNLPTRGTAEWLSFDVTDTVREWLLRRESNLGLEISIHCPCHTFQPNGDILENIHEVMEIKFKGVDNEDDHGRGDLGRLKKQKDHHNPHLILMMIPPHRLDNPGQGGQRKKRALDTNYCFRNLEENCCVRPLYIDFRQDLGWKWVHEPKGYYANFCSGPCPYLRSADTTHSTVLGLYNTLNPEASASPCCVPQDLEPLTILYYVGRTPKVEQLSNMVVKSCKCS

B1: TSTO1008 (antibody, V domains shown)
VH: AVQLVQSGAEVKKPGESLRISCKGSGYSFSTYWIIWVRQMPGKGLEWIGRFDPSDSYNVNSPSFQGHVTISADTSINTAYLQWSSLKASDSAMYYCARRSDKAVPGTFDQWGQGTLVTVSS
VL: RSVLTQPPSVSAAPGQKVIISCSGSSSNIGNNYVSWYQQFLGTAPKLLIYDTDKRPSGIPDRFSGSKSGTSATLGITGLQTGDEAHYYCATWDSSLRAGPVVFGGGTKLTVLG
notes: VH/VL tied via antigen in summary, not by name in this stretch
B1: binds [1].

B2: TSTO1004 (antibody, V domains shown)
VH: QVQLVQSGSELKKPGASVKVSCTSSGYVFTSFGVSWVRQVPGQGPEWMGWISPYTRQTKYAQSLQGRITLTADTSTNTTYMELRSLRSDDTAMYYCVREEFGVVRGPNPFDVWGQGTMVTVSS
VL: DIQMTQAPSTLSASVGDRVSITCRASQNIRDFLAWYQQKPGRAPDLLIYRASTLEKGVSARFSGSGSGTEFTLTITGLQPDDFATYYCQQYSDYSTFGGGTRVEIK
notes: as for B1
B2: binds (chymotrypsinogen B2).

B3: TTES1003 (antibody, V domains shown)
VH: VVQLVESGGGLVQPGGSLRLSCSASGFTFSSYAMHWVRQAPGKGLEYVSAISSNGGSTYYADSVKGRFTISRDNSKNTLYLQMSSLRAEDTAVYYCVKSPVAANDAFDIWGQGTMVTVSS
VL: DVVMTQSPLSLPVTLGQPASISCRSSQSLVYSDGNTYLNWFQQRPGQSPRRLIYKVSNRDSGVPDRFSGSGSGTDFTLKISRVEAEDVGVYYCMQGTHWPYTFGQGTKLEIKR
notes: as for B1
B3: binds (programmed cell death 1).

B4: TSTO1005 (antibody, V domains shown)
VH: EVQLVESGGGVVQPGGSLRLSCAASGFTFEDFGMHWVRQAPGKGLEWVAFTRFDGSEKYYVDSVKGRFTVSRDNSKNTLFLHMNSLRPEDTAVYYCAKTRSYSSADTTRPNAPGYWGQGTLVTVSS
VL: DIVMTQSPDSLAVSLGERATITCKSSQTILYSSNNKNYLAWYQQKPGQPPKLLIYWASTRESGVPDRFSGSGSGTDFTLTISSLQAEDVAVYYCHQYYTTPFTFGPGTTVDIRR
notes: as for B1
B4: binds [2]; binds [3].

B5: TBLA1003 (antibody, V domains shown)
VH: EVQLVESGGGLIQPGRSLRLSCAASGFTFEDYAMHWVRQAPGKGLEWVSGISWNSGNIGYADSVKGRFTISRDNAKNSLYLQMHSLRPEDTALYYCAKDINFFGLGTGGGAMDVWGQGTTVTVSS
VL: DIQMTQSPSYVSASVGDRVTITCRASQGIDVWLAWYQQKPGKAPKLLIYTASSLQSGVPSRFSGSGGGTEFTLTISSLQPEDFATYYCQQSNSFPGTFGPGTKVDVKR
notes: VH/VL only
B5: binds [4].

B6: TBRE1009 (antibody, V domains shown)
VH: EVQLVESGGGLVKPGGSLRLSCVGSGFTFSNYSMNWVRQAPGRGLEWVSSISWGSSYINYADSVKGRFTISRDNAKNSLYLQMTSLTAEDTAVYYCACRRIYQGFDPWGQGTLVT
VL: DIQMTQSPSSLSASVGDRVTISCRASHNINTYLNWYQHKPGKAPKIVIYGASSLQSGVPSRFSGSGSGTDFSLTISSLQREDFATYFCQQSFNTVLTFGGGTRVDI
notes: VH/VL only
B6: binds [5].

B7: TSTO1010 (antibody, V domains shown)
VH: EVQLVESGGGLVKPRGSLRLSCAASGFTFSAYGMNWVRQAPGKGLEWVSSISGDSRDIYYGASMKGRFTISRDNAKSSLYLQMNSLRAEDTAVYYCARGEGGELWAFDYWGLGVLVTVSS
VL: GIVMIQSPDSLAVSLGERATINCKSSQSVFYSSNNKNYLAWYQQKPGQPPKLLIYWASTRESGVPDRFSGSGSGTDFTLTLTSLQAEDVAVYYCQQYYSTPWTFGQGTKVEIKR
notes: as for B1
B7: binds [6].

B8: TTES1002 (antibody, V domains shown)
VH: QVQLQESGPGLVKPSETLSLICTVSGASVNSGTHFWSWIRQPPGKGLEWIGYVYYSGNTNYNPSLKSRVAISVDTSKNQFSLKLTSVTSADTAVYYCARDFDDGYDIRYWGQGTRVSVSS
VL: QSALTQPASVSGSPGQSITISCTGSSNDIGRYKYVSWFQHHPGRAPKLIIYEVNNRPSGLSHRFSGSKSGNTASLTISGLQAEDEADYYCCSYTSSLTYVFGTGTAVTVL
notes: as for B1
B8: binds [7].

B9: TSTO1003 (antibody, V domains shown)
VH: QVQLKQSGGGVVQPGRSLTLSCVASGLTFSDYGMHWVRQAPGKGLEWVAVIWHDGSKTNYADSVKGRIIISRDNSKSTVYLQMNRLRGEDTAVYYCATSHGGLVPGGENYWGQGTLVTVSS
VL: SDELTQPPSVSVSPGQTARITCSGDALAKEYAYWYQQKSGQAPVLVISKDTERPSGIPARFSGSSSGTTVTLTISGVQSDDEADYYCQSADSSLTYWLFGGGTKLTVLR
notes: as for B1
B9: binds [8].
